Test results taken from the supplement of paper PMC12042874.
± gives the uncertainty stated by the source.

Experiment: amyloid nucleation score (Sup35N fusion, yeast selection) (log enrichment); library NNK1; higher = more nucleation; inactive = no reads after selection
How it was run: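 Sup35N fusions to peptides of 20 random codons were expressed in psi-negative yeast, induced 24 hours with 100 μM copper sulfate, and grown 7 days at 30°C on medium lacking adenine and uracil. Input and output plasmid inserts were sequenced by Illumina. The nucleation score is the DiMSum log enrichment of output over input reads, centred on the mode score of non-aggregating sequences. Sequences with under 100 input reads were excluded.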

Question: Which amyloid nucleation score does the source give for PSILTVCLRV here?
Answer: 0.188 ± 0.41

Question: Which amyloid nucleation score does the source give for PSLLWAFTLS here?
Answer: 0.5 ± 0.42

Question: Which amyloid nucleation score does the source give for PSQRNKIPGMLSLYY here?
Answer: -0.193 ± 0.57

Question: Which amyloid nucleation score does the source give for PSTVCMFPRWLAVVRLVLQT here?
Answer: 0.79 ± 0.35

Question: For PSVTVYIYNLSSIFYGIRDL, which amyloid nucleation score is on record?
Answer: 6.71 ± 0.075

Question: Which amyloid nucleation score does the source give for PSYIHMVSGRFSFSSPRGQK here?
Answer: 0.029 ± 0.49

Question: For PTEKYAESLMERTYFRAEMK, which amyloid nucleation score is on record?
Answer: 0.315 ± 0.34

Question: Which amyloid nucleation score does the source give for PTVYSDYTCSTFMWISD here?
Answer: 0.299 ± 0.6

Question: Which amyloid nucleation score does the source give for PTWSWWGSWHLGSMPGDNRR here?
Answer: 0.237 ± 0.78

Question: For PVCWSHFYFRVDVFYEWGRV, which amyloid nucleation score is on record?
Answer: -0.274 ± 0.39

Question: For PVGWGNTACSLRCTGHVSYV, which amyloid nucleation score is on record?
Answer: -0.604 ± 1.7

Question: For PVKVWARTVQSVAWLFSCG, which amyloid nucleation score is on record?
Answer: -0.016 ± 1.4

Question: For PVLLRSIIF, which amyloid nucleation score is on record?
Answer: -0.346 ± 0.36

Question: With PVLWT as the substance, how does the amyloid nucleation score read?
Answer: -0.002 ± 0.53

Question: For PVRQLERSNRLLKQGRRPLG, which amyloid nucleation score is on record?
Answer: 0.512 ± 0.49

Question: Which amyloid nucleation score does the source give for PVTSTIHRHPFFHVTTGDRM here?
Answer: -1.32 ± 0.94

Question: Which amyloid nucleation score does the source give for PVVDKLSDVHVM here?
Answer: -0.262 ± 0.31

Question: Which amyloid nucleation score does the source give for PVVPCYPRLKVCTGRRTAGA here?
Answer: 0.684 ± 0.55

Question: With PWASNIAFLNFPTCTDCDG as the substance, how does the amyloid nucleation score read?
Answer: 2.09 ± 0.28

Question: With PWLKVQFVKREVTIDFRVRV as the substance, how does the amyloid nucleation score read?
Answer: inactive

Question: Which amyloid nucleation score does the source give for PWYTSLEIKRSEETCKAMPF here?
Answer: 0.302 ± 0.41

Question: Which amyloid nucleation score does the source give for PWYVIKV here?
Answer: -0.055 ± 0.31

Question: For PYFLNCRPLRA, which amyloid nucleation score is on record?
Answer: 0.815 ± 0.52

Question: With PYFVIKSRWGQNRS as the substance, how does the amyloid nucleation score read?
Answer: inactive

Question: With PYHIKLLQR as the substance, how does the amyloid nucleation score read?
Answer: 1.44 ± 0.18

Question: Which amyloid nucleation score does the source give for PYYHHVGVGYAFYVICVRAF here?
Answer: inactive

Question: Which amyloid nucleation score does the source give for QAFFVFC here?
Answer: 1.3 ± 0.36

Question: With QAKPIIGRRTPLNDFNSPLY as the substance, how does the amyloid nucleation score read?
Answer: 0.15 ± 0.37

Question: Which amyloid nucleation score does the source give for QASIYCIIRE here?
Answer: 0.68 ± 0.43

Question: For QASSGIDVNHFYAVNLTSML, which amyloid nucleation score is on record?
Answer: 0.487 ± 0.97

Question: With QAVRIVGERLAFFGN as the substance, how does the amyloid nucleation score read?
Answer: 0.607 ± 0.65

Question: With QCAWCTRSVNNMYQTLEYHI as the substance, how does the amyloid nucleation score read?
Answer: 6.151 ± 0.049

Question: For QCLRWDPGI, which amyloid nucleation score is on record?
Answer: 1 ± 0.51

Question: For QDAIMFGSDPLFYILLGLWG, which amyloid nucleation score is on record?
Answer: inactive

Question: Which amyloid nucleation score does the source give for QDFVMSYLCRLKGWLDKRYR here?
Answer: 0.472 ± 0.25

Question: Which amyloid nucleation score does the source give for QDIQSISWHAFVVESFKSEK here?
Answer: -0.094 ± 0.32

Question: With QDRENLNCIHY as the substance, how does the amyloid nucleation score read?
Answer: 1.24 ± 0.31

Question: Which amyloid nucleation score does the source give for QDVKSMCQPFMILMVVSGGL here?
Answer: -0.101 ± 0.65

Question: For QFDCPEHKRIHYRGPHPKRK, which amyloid nucleation score is on record?
Answer: -0.356 ± 0.33

Question: For QFEDLHQLYSMCALPDSTKH, which amyloid nucleation score is on record?
Answer: -0.366 ± 0.93

Question: With QFGWFWFLNYALQDFDN as the substance, how does the amyloid nucleation score read?
Answer: -0.696 ± 0.75

Question: Which amyloid nucleation score does the source give for QFILRDNVVRRMKFRGVPNF here?
Answer: 2.22 ± 0.55

Question: Which amyloid nucleation score does the source give for QFKRKIICQDKSVAFKCNYR here?
Answer: -0.493 ± 0.22

Question: Which amyloid nucleation score does the source give for QFSHCWMSRRSGVNSAGRSG here?
Answer: -0.238 ± 0.39

Question: With QFSHNRIMLDQTWKNVVKGL as the substance, how does the amyloid nucleation score read?
Answer: -0.001 ± 0.37

Question: With QFVHGRNETIRSFNCPGLAE as the substance, how does the amyloid nucleation score read?
Answer: -0.007 ± 1.2

Question: Which amyloid nucleation score does the source give for QFYVSVFEIYSLLTRKCACR here?
Answer: inactive

Question: For QGGRVDGSPPTVYA, which amyloid nucleation score is on record?
Answer: 0.555 ± 0.46

Question: Which amyloid nucleation score does the source give for QGHCGTYHSGGSVNRLPHGV here?
Answer: 0.209 ± 0.39

Question: For QGIYTD, which amyloid nucleation score is on record?
Answer: -0.921 ± 0.78

Question: With QGLADNKSSFKGV as the substance, how does the amyloid nucleation score read?
Answer: 0.591 ± 1

Question: Which amyloid nucleation score does the source give for QGSVSRCISEALTVRCYRTG here?
Answer: inactive

Question: For QIINKFTSDIVLTD, which amyloid nucleation score is on record?
Answer: 0.456 ± 0.38

Question: Which amyloid nucleation score does the source give for QIIWVIRFLLVCVFTLSKLV here?
Answer: inactive

Question: With QKAAVEQGLSRFGEGVTP as the substance, how does the amyloid nucleation score read?
Answer: 0.886 ± 0.66

Question: For QKKSLVRGKGES, which amyloid nucleation score is on record?
Answer: -0.145 ± 0.48

Question: Which amyloid nucleation score does the source give for QKLLTSMSVITW here?
Answer: 1.81 ± 0.65

Question: Which amyloid nucleation score does the source give for QKLVDLTIRWGYRPLGRCWW here?
Answer: 0.622 ± 0.97

Question: For QLKCPKNDHVIVWDFCINQL, which amyloid nucleation score is on record?
Answer: 2.28 ± 0.32

Question: For QLRHLHSNVLLRDIWLGFKF, which amyloid nucleation score is on record?
Answer: -1.01 ± 1.7

Question: Which amyloid nucleation score does the source give for QLSFYSFCPMATYRSSNSDL here?
Answer: 5.92 ± 0.053

Question: With QLTPTLCDRSRCCPGGLFVY as the substance, how does the amyloid nucleation score read?
Answer: 0.631 ± 0.58

Question: Which amyloid nucleation score does the source give for QMGELSSYRLFGIRTFRF here?
Answer: -0.02 ± 0.81

Question: With QMRAFSDLFLLSDY as the substance, how does the amyloid nucleation score read?
Answer: 0.406 ± 0.46

Question: Which amyloid nucleation score does the source give for QNDTYLI here?
Answer: 0.022 ± 1.1

Question: With QNLVLVKPEVFGTSRLLCGH as the substance, how does the amyloid nucleation score read?
Answer: 0.184 ± 0.53

Question: With QNPWNGILLAKNWRDKMLRN as the substance, how does the amyloid nucleation score read?
Answer: 0.3 ± 0.52

Question: With QRLGQGIGGEWPTKL as the substance, how does the amyloid nucleation score read?
Answer: 0.995 ± 0.67

Question: For QRMLHAYLCVNWAELTHIRV, which amyloid nucleation score is on record?
Answer: 0.034 ± 0.6

Question: Which amyloid nucleation score does the source give for QRPLCENRLDYKLGYSTMTF here?
Answer: -0.646 ± 1.6

Question: Which amyloid nucleation score does the source give for QRVSIRFSVPRGL here?
Answer: 0.312 ± 0.31

Question: For QSGPSAVY, which amyloid nucleation score is on record?
Answer: 0.362 ± 0.64

Question: For QSLDE, which amyloid nucleation score is on record?
Answer: -0.44 ± 0.28

Question: Which amyloid nucleation score does the source give for QSMSCRAFVVTSRLVHWGTQ here?
Answer: -0.438 ± 0.6

Question: For QSSLGNLTCANFWVTTTEVG, which amyloid nucleation score is on record?
Answer: inactive

Question: For QSSSYERLKQTGKLSFYIDF, which amyloid nucleation score is on record?
Answer: -0.069 ± 0.61

Question: For QSTLGGSKHAWLIENGGFGF, which amyloid nucleation score is on record?
Answer: -0.685 ± 1.1

Question: For QSVHDTHSCHGSH, which amyloid nucleation score is on record?
Answer: 0.5 ± 0.63

Question: With QTEQMFGRVDIVYLPAIWSS as the substance, how does the amyloid nucleation score read?
Answer: 0.447 ± 0.45

Question: With QTRVCTNDKSSFTLQTGRW as the substance, how does the amyloid nucleation score read?
Answer: 3.26 ± 0.14

Question: Which amyloid nucleation score does the source give for QTSLMMWLRR here?
Answer: inactive

Question: For QTTFGLMIFT, which amyloid nucleation score is on record?
Answer: 0.89 ± 0.93

Question: Which amyloid nucleation score does the source give for QVALYKVVVYKTWDVGFPSC here?
Answer: 0.988 ± 0.9

Question: For QVFATRDAQRYLLMHRIDHN, which amyloid nucleation score is on record?
Answer: -0.153 ± 1.7

Question: With QVHIERDVERPYMFLGTAWG as the substance, how does the amyloid nucleation score read?
Answer: -0.285 ± 0.34

Question: Which amyloid nucleation score does the source give for QVIEKFVAGCEGQKR here?
Answer: 2.31 ± 0.14
